Laboratory results taken from publication PMC7431413, “Selective inhibition of STAT3 signaling using monobodies targeting the coiled-coil and N-terminal domains” (Nature Communications, 2020).
Where no end group is shown, it is not given here. [ ]: non-standard residue; d: D form. pY = N[C@@H](Cc1ccc(OP(=O)(O)O)cc1)C(=O)O

Target: T1, recombinant core fragment (CF) of STAT3 (human, UniProt P40763 127-722)
T1 construct: STAT3, human, core fragment (CC, DBD and SH2 domains), a.a; For the crystal the methods say 'TEV cleaved-MS3-6 and STAT3-CF'; it is not clear whether the tags of STAT3-CF were cut too; also called STAT3-CF; source: E. coli BL21 (DE3), pHBT vector, purified (Ni-NTA, SEC)
Assay: fluorescence polarisation; fluorescent gp130 pY-peptide and recombinant STAT3-CF (Supplementary Fig. 3a); TBS (50 mM Tris pH 7.5, 150 mM NaCl)
Conditions: both partners purified

T1 sequence (P40763 127-722): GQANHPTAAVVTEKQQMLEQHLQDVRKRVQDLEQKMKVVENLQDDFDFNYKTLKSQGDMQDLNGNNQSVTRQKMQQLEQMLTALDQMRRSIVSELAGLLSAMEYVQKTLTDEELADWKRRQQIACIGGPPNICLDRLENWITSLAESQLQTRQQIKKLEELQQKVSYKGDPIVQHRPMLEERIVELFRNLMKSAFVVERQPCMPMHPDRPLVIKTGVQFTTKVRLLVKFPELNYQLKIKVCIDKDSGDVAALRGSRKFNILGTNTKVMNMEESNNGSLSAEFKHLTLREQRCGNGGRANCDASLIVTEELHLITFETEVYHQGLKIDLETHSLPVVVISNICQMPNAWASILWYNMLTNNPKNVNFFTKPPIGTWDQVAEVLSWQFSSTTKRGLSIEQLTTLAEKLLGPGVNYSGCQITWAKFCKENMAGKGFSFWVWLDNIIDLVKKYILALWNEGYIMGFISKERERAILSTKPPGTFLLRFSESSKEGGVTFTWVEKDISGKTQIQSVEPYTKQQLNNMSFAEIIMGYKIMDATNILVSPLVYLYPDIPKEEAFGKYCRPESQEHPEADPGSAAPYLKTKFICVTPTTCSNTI

B1: fluorescent pY-peptide encompassing the pY905 docking site of gp130 (peptide)
peptide: GMPKS[pY]LPQTVR-NH2
modifications: not fully specified (N-terminus)
notes: gp130, cytosolic tail around the Y905 docking site; also called gp130 pY-peptide; phospho-gp130 peptide; source: synthetic peptide
Work on B1 yielded a Kd of 930 nM.
